Experimental data taken from PMC4075986.

Target: chicken pectoral skeletal muscle actin (F-actin) (chicken) (UniProt P68139)
Test: co-sedimentation

Ka: 1.7e+06 M⁻¹
Substance: rat tropomyosin Tm5a (natural protein)
